# Data from the supplement of paper PMC10567573.
# B1: INTS4 (parent)
# chain: YSSGEFSSGRKWGDDAPKEEVDTG
# Variants of: B1
# Assay: protein stability index of a GFP-peptide fusion (GPS, HEK-293T) (PSI 1-6); higher = more stable
# Details: c terminus: a fixed tail appended
# 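Also: lentivirally expressed fusions sorted by FACS into six bins by GFP to DsRed ratio, PSI derived from sequencing read proportions per bin multiplied by bin number.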
row,Variant,protein stability index
1,S3V,4.77
2,S3Q,3.86
3,S3P,4.1
4,S3H,4.43
5,S3M,3.91
6,S3W,2.89
7,S3C,4.1
8,S3K,4.51
9,S3N,4.08
10,S3Y,4.13
11,S3G,3.5
12,S3I,4.01
13,V21E,2.84
14,V21W,1.82
15,V21S,2.54
16,V21C,3.39
17,V21P,3.13
18,V21R,2.83
19,V21N,2.81
20,V21I,2.27
21,V21Q,2.73
22,V21L,2.28
23,V21G,2.94
24,V21M,2.78

row,Variant,protein stability index
1,V21D,2.92
2,V21H,2.74
3,V21K,2.8
4,P17Y,1.99
5,P17K,2.31
6,P17D,3.06
7,P17S,3.25
8,P17G,2.09
9,P17Q,2.35
10,P17T,2.96
11,P17N,2.87
12,P17F,2.45
13,P17L,2.57
14,P17W,2.9
15,P17R,2.01
16,P17V,2.74
17,P17I,2.44
18,P17M,2.39
19,P17C,2.64
20,P17E,2.8
21,D15L,2.04
22,D15G,2.07
23,D15E,3.12
24,D15S,2.54

row,Variant,protein stability index
1,D15P,1.96
2,D15W,1.69
3,D15A,1.78
4,D15V,1.78
5,D15Y,2.01
6,D15C,2.5
7,D15M,1.78
8,D15T,2.28
9,D15H,1.81
10,D15K,2.18
11,D15I,1.11
12,Y1N,5.22
13,Y1A,4.93
14,Y1P,5.42
15,Y1K,5.62
16,Y1L,5.79
17,Y1D,5.8
18,Y1G,5.47
19,Y1R,5.71
20,Y1I,5.55
21,Y1C,3.87
22,Y1E,5.74
23,Y1S,5.81
24,Y1H,5.51

row,Variant,protein stability index
1,Y1T,5.12
2,Y1M,5.39
3,G13F,2.65
4,G13I,2.48
5,G13K,2.5
6,G13S,2.94
7,G13D,2.5
8,G13W,2.44
9,G13Y,2.81
10,G13L,2.35
11,G13C,2.65
12,G13V,2.47
13,G13Q,3.38
14,G13H,3.66
15,G13N,3.13
16,G13P,2.6
17,K18G,3.44
18,K18E,3.84
19,K18H,2.83
20,K18D,3.16
21,K18T,2.56
22,K18C,2.62
23,K18V,2.81
24,K18A,3.05

row,Variant,protein stability index
1,K18R,3.13
2,K18Q,2.92
3,K18L,2.49
4,E19Q,2.95
5,E19F,2.97
6,E19L,1.94
7,E19V,1.84
8,E19R,1.75
9,E19G,2.48
10,E19A,2.67
11,E19S,2.26
12,E19P,2.3
13,E19N,2.52
14,E19M,2.93
15,E19T,2.72
16,G4A,3.56
17,G4N,4.01
18,G4D,4.57
19,G4C,3.61
20,G4S,4.02
21,G4P,3.11
22,G4Q,3.92
23,G4R,2.22
24,G4M,3.75

row,Variant,protein stability index
1,G4E,4.08
2,E5T,3.55
3,E5N,3.27
4,E5R,2.15
5,E5V,1.32
6,E5S,3.07
7,E5Q,2.14
8,E5D,3.64
9,E5I,1.97
10,E5F,1.76
11,E5M,2.68
12,E5L,2.11
13,E5G,2.78
14,E5C,1.84
15,E5A,2.75
16,E5H,2.16
17,T23M,1.99
18,T23F,2.47
19,T23W,2.05
20,T23R,2.96
21,T23S,2.67
22,T23H,2.35
23,T23I,2.3
24,T23K,2.46

row,Variant,protein stability index
1,T23Q,2.15
2,T23C,2.95
3,T23Y,2.36
4,T23N,2.35
5,T23G,2.81
6,T23E,2.8
7,T23D,2.96
8,T23L,2.9
9,D14E,2.32
10,D14N,2.59
11,D14L,1.98
12,D14K,1.71
13,D14H,2.73
14,D14T,1.94
15,D14S,2.19
16,D14C,1.79
17,D14R,2.02
18,D14A,2.54
19,D14M,1.94
20,D14V,2.01
21,D14I,1.54
22,D14F,2.59
23,G24H,2.51
24,G24C,2.96

row,Variant,protein stability index
1,G24F,2.63
2,G24R,2.83
3,G24L,2.76
4,G24I,2.25
5,G24N,3.09
6,G24K,3.9
7,G24S,2.65
8,G24V,2.72
9,G24E,2.74
10,G24T,2.72
11,S7Q,2.69
12,S7Y,2.52
13,S7M,2.17
14,S7N,3.3
15,S7I,1.96
16,S7E,4.21
17,S7V,2.27
18,S7G,2.75
19,S7A,1.91
20,S7F,2.98
21,S7C,2.32
22,S7D,3.83
23,S7H,1.92
24,S7R,1.8

row,Variant,protein stability index
1,S7L,2.43
2,S8T,2.48
3,S8A,2.75
4,S8Q,1.89
5,S8C,1.97
6,S8N,2.68
7,S8D,3.79
8,S8G,3.83
9,S8L,3.21
10,S8E,3.56
11,S8F,2.48
12,S8Y,2.59
13,S8I,1.94
14,S8M,1.6
15,S8V,1.57
16,K11W,1.94
17,K11Q,2.83
18,K11L,1.91
19,K11G,2.98
20,K11N,3.21
21,K11A,2.7
22,K11T,2.31
23,K11V,2.39
24,K11C,1.93

row,Variant,protein stability index
1,K11M,2.62
2,K11R,1.97
3,K11Y,3.31
4,K11P,2.08
5,K11F,1.9
6,K11I,1.78
7,K11E,3.25
8,G9M,1.83
9,G9A,1.91
10,G9Y,2.44
11,G9D,3.6
12,G9V,3.12
13,G9W,1.43
14,G9F,2.48
15,G9K,1.28
16,G9E,2.76
17,G9I,1.84
18,G9T,2.3
19,G9L,2.49
20,G9Q,2.35
21,G9N,2.59
22,G9P,2.27
23,G9R,2.32
24,R10C,2.47

row,Variant,protein stability index
1,R10T,2.8
2,R10H,2.85
3,R10P,2.3
4,R10N,2.63
5,R10K,2.81
6,R10I,2.13
7,R10A,2.35
8,R10D,3.93
9,R10L,2
10,R10V,2.5
11,R10Y,2.41
12,R10E,3.65
13,F6N,5.22
14,F6G,4.57
15,F6Q,4.96
16,F6H,4.96
17,F6M,4.69
18,F6C,5.11
19,F6L,4.24
20,F6A,4.88
21,F6T,4.79
22,F6V,4.99
23,F6R,4.63
24,F6S,5.16

row,Variant,protein stability index
1,S2Q,2.48
2,S2R,5.05
3,S2N,4.64
4,S2V,1.59
5,S2A,2.28
6,S2G,1.95
7,S2M,3.97
8,S2T,2.67
9,S2C,2.04
10,S2K,5.2
11,S2Y,4.92
12,S2W,3.81
13,A16F,2.3
14,A16V,2.42
15,A16I,2.28
16,A16Q,2.71
17,A16M,2.52
18,A16C,2.71
19,A16D,2.95
20,A16S,2.63
21,A16K,2.19
22,A16E,2.99
23,A16P,2.32
24,D22W,1.64

row,Variant,protein stability index
1,D22Q,2.71
2,D22F,3.28
3,D22H,2.48
4,D22L,2.27
5,D22K,1.65
6,D22Y,2.02
7,D22I,2.66
8,D22V,1.86
9,D22M,1.63
10,D22R,2.73
11,D22P,2.38
12,D22C,2.67
13,D22N,2.74
14,D22T,2.34
15,E20G,2.17
16,E20K,1.91
17,E20I,2.43
18,E20D,2.49
19,E20N,2.35
20,E20W,1.97
21,E20H,2.63
22,E20M,2.31
23,E20F,2.42
24,E20A,2.3

row,Variant,protein stability index
1,E20Y,3.19
2,E20C,2.5
3,E20V,2.37
4,E20Q,2.6
5,E20P,2.42
6,E20L,1.89
7,E20R,2.28
8,E20T,2.38
9,W12P,2.92
10,W12A,3.22
11,W12D,3.21
12,W12Q,3.17
13,W12M,2.85
14,W12K,2.94
15,W12I,3.2
16,W12E,3.84
17,W12V,3.08
18,W12S,4.44
19,W12G,3.11
20,W12L,3.24
21,W12F,2.96
22,W12T,3.08
